Source: patent US20240294670A1 (University of Texas, published 2024)

What was measured:
Test in all cases: anti-His co-IP of rCHI3L1 from Kupffer cell lysate, MS; listed under 'proteins bound to CHI3L1'
[1] = molecular target: T1, Q3TVM2_MOUSE (mouse, UniProt Q3TVM2 20-519)
T1 construct: also called tr|Q3TVM2|Q3TVM2_MOUSE
T1 sequence: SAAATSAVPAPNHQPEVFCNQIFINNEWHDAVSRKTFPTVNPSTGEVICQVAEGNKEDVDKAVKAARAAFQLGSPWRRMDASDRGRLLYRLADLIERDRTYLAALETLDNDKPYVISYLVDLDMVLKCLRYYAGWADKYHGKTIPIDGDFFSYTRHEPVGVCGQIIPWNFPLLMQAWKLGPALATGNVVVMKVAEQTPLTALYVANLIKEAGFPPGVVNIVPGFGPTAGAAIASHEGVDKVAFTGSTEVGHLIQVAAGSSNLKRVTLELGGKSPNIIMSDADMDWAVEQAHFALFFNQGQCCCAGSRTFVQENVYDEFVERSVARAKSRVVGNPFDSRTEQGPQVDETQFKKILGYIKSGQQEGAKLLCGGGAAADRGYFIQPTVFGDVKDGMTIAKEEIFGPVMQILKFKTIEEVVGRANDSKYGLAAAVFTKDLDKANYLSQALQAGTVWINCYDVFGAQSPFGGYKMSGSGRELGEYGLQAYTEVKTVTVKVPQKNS
Method: (§1) CHI3L1 interacts with CD44 on KCs. To further understand how CHI3L1 mediates the function of KCs to recruit platelets, the inventors set out to identify its receptor on KCs. They isolated KCs from WT mice treated with APAP for 3 h and incubated the cells with His-tagged rCHI3L1. The cell lysate was subjected to immunoprecipitation using an anti-His antibody. The “pulled down” fraction was subjected to LC/MS analyses. A partial list of proteins identified, including CHI3L1 itself, is shown in (Extended Data Table 1). Because CD44 is a cell membrane protein, the inventors decided to investigate it is a receptor for CHI3L1. They performed/immunoprecipitation experiments using liver homogenates obtained from WT and CD44^{-/-} mice after APAP treatment. […] Moreover, the inventors incubated rhCHI3L1 with human CD44 and then immunoprecipitated with an anti-CD44 antibody. The data confirmed a direct binding between CHI3L1 and CD44 (FIG. 3C). Consistent with the notion that many cell types express CD44, they detected CD44 express on various hepatic non-parenchymal cells (NPCs) except B cells and DCs (summarized in Extended Data Table 2). However, when they incubated liver NPCs with His-tagged rCHI3L1, the inventors observed that the only CD44-expressing cells that could bind to CHI3L1 were KCs (FIG. 3D).

[2] = molecular target: T2, Q3TF14_MOUSE (mouse, UniProt Q3TF14 2-432)
T2 construct: also called tr|Q3TF14|Q3TF14_MOUSE
T2 sequence: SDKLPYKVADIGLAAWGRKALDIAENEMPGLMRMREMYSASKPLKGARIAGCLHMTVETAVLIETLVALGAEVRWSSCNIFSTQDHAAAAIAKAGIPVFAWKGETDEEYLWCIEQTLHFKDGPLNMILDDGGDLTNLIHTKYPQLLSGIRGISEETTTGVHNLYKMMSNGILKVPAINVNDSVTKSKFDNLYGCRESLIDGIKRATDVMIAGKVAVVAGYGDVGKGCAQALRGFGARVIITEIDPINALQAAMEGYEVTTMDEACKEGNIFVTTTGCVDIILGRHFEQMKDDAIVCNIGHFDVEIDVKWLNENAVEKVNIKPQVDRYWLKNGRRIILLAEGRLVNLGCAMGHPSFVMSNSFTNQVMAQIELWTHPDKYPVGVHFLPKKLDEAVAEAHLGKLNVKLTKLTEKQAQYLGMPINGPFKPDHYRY
Method: as §1

[3] = molecular target: T3, D3Z041_MOUSE (mouse, UniProt D3Z041 1-699)
T3 construct: also called tr|D3Z041|D3Z041_MOUSE
T3 sequence: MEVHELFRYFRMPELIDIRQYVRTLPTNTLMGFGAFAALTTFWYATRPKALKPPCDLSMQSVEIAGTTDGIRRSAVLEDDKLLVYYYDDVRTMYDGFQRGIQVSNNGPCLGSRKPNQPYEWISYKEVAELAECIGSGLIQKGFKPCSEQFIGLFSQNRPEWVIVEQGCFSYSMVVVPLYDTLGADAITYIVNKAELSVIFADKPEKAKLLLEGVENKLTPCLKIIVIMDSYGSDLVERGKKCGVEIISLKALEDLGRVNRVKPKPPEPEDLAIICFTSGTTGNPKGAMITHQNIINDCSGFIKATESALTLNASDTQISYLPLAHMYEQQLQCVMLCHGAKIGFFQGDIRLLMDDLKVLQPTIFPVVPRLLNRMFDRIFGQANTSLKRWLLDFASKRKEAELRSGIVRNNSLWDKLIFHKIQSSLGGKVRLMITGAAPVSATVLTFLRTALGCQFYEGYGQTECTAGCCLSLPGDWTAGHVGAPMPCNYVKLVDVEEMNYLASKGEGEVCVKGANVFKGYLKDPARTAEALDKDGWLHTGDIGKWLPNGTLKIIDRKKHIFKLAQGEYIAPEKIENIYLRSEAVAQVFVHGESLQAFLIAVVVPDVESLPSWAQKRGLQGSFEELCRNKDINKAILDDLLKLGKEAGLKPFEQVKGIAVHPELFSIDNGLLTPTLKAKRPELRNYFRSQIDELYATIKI
Method: as §1

[4] = molecular target: T4, Q546G4_MOUSE (mouse, UniProt Q546G4 25-608)
T4 construct: also called sp|Q546G4|Q546G4_MOUSE
Method: as §1

Measured: binding result

B1: recombinant mouse CHI3L1 (ligand)
chain: not shown
notes: His-tagged; also called mCHI3L1; mChi3l1
binds: all assays above
